Laboratory results from CN114751980A (XIAMEN BOANG BIOTECHNOLOGY CO LTD, dated 2022).

Target: T1, 重组N蛋白 (新冠病毒 (SARS-CoV-2), UniProt P0DTC9 1-419)
T1 construct: also called 新冠病毒N蛋白
Assay: indirect ELISA

B1: 单抗阻断剂A3-4 (antibody, V domains shown)
VH: EVQLEESGGGLVQPGGSRKLSCIASGIIFHNFGMHWIRQAPEKGLEWVAYISGLSRNISYADTVKGRFTISRDNPKNTLFLQMTSLRSEDTAMYYCSRGWAYDAAFWGQGTLVTVS
VL: DVVMTQTPLTLSVTIGQPASFSCKSSRSLLSSNGKIYLNWLLQRPGQSPKRLIYLVSKLDSGVPDRFTGSGSGTDFTLQINRVEAEDLGVYYCVQGTHFPLTFGAGTKLELKR
notes: also called 新冠病毒检测用单抗阻断剂
binding result: no binding
